Experimental data taken from the supplement of paper PMC10065799, “High-throughput profiling of sequence recognition by tyrosine kinases and SH2 domains using bacterial peptide display” (eLife, 2023).

How the values were obtained:
AncSZ = test: phosphorylation enrichment, bacterial display (enrichment ratio); higher = better substrate or ligand; peptides without Tyr show the background
EPHB1 = EPHB1 (UniProt P54762); test: as above
EPHB2 = EPHB2 (UniProt P29323); test: as above
FGFR1 = FGFR1 (UniProt P11362); test: as above
FGFR3 = FGFR3 (UniProt P22607); test: as above
Fer (mouse) = test: as above
Fes = Fes (UniProt P07332); test: as above
Fyn = Fyn (UniProt P06241); test: as above
Hck = Hck (UniProt P08631); test: as above
Jak2 = Jak2 (UniProt O60674); test: as above
MERTK = MERTK (UniProt Q12866); test: as above
c-Abl (mouse) = test: as above
c-Src = test: as above
Grb2 SH2 = Grb2 SH2 (UniProt P62993); test: SH2 binding enrichment of the phosphorylated peptide, bacterial display (enrichment ratio); higher = better substrate or ligand; peptides without Tyr show the background
SHP2-C SH2 = test: as above
c-Src SH2 = test: as above
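Throughout, for SH2 binding enrichment of the phosphorylated peptide, bacterial display: peptide library displayed on the E. coli surface as eCPX fusions, selected cells deep-sequenced, score is each peptide's frequency after selection divided by its frequency in the input.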
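Throughout, for phosphorylation enrichment, bacterial display: 11-residue human phosphosite peptides and single-mutation variants displayed on the E. coli surface, counted by deep sequencing, each peptide's frequency after selection divided by its frequency in the unselected input library; frequency after pTyr selection over input frequency; kinase dosed for 20-30% of maximal phosphorylation in three min.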

EPHB1, sequence (P54762 whole entry, looked up): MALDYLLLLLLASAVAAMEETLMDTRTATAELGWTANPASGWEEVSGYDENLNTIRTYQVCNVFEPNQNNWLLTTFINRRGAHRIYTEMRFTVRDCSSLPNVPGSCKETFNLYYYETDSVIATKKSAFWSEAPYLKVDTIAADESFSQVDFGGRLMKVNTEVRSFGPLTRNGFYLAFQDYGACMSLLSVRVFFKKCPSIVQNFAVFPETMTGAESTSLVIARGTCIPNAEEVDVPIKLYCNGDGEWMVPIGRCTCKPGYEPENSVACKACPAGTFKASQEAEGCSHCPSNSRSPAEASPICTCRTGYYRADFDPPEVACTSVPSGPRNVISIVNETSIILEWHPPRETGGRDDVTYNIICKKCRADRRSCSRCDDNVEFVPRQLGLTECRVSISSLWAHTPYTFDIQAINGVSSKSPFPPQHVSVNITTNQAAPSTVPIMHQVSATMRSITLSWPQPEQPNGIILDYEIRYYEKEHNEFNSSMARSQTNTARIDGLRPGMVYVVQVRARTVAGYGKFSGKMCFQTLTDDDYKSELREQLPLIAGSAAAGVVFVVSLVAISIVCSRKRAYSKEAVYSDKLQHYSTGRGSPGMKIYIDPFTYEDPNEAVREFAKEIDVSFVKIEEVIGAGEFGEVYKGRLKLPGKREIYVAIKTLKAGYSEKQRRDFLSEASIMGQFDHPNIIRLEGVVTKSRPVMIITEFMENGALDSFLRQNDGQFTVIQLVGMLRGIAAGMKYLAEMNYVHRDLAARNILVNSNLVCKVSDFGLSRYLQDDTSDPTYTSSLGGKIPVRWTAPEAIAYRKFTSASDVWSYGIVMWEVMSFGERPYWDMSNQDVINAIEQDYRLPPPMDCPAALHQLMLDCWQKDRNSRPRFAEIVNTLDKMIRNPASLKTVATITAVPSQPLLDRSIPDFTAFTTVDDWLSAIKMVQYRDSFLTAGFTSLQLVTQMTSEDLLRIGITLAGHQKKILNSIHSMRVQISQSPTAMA
FGFR3, sequence (P22607 whole entry, looked up): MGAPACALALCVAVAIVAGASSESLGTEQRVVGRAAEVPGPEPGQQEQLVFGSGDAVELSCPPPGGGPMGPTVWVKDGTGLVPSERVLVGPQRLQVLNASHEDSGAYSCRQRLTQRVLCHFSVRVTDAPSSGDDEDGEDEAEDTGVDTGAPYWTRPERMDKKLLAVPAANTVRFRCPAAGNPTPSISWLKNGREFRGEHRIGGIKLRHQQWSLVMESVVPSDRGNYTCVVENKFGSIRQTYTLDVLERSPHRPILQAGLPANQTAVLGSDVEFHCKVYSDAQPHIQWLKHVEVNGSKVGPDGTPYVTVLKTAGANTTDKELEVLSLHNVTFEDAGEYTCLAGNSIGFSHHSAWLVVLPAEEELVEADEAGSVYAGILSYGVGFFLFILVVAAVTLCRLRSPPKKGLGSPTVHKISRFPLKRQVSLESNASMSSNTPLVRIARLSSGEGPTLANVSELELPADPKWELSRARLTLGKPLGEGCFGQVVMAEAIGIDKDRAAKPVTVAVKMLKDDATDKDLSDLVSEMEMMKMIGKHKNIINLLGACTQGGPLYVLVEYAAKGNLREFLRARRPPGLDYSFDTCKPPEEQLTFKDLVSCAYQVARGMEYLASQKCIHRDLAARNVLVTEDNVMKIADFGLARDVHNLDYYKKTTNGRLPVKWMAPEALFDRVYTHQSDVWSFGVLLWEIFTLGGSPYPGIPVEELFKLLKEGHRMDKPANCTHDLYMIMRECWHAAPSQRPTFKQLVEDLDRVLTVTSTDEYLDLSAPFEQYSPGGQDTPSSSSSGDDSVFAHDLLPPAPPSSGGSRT
Fyn, sequence (P06241 whole entry, looked up): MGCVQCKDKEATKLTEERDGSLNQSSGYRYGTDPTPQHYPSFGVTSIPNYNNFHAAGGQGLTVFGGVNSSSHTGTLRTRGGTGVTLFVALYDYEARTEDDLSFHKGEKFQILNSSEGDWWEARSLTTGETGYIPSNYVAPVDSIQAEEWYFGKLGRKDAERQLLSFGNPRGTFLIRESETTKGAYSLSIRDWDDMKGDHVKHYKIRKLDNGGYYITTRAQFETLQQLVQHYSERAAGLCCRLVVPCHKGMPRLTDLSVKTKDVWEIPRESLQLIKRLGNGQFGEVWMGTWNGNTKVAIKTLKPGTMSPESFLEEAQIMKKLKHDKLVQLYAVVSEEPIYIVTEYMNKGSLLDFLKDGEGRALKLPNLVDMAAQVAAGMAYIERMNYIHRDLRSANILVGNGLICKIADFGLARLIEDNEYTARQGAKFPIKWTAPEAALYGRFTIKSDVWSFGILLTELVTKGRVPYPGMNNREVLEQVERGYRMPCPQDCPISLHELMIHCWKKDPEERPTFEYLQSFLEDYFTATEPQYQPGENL
Fes, sequence (P07332 whole entry, looked up): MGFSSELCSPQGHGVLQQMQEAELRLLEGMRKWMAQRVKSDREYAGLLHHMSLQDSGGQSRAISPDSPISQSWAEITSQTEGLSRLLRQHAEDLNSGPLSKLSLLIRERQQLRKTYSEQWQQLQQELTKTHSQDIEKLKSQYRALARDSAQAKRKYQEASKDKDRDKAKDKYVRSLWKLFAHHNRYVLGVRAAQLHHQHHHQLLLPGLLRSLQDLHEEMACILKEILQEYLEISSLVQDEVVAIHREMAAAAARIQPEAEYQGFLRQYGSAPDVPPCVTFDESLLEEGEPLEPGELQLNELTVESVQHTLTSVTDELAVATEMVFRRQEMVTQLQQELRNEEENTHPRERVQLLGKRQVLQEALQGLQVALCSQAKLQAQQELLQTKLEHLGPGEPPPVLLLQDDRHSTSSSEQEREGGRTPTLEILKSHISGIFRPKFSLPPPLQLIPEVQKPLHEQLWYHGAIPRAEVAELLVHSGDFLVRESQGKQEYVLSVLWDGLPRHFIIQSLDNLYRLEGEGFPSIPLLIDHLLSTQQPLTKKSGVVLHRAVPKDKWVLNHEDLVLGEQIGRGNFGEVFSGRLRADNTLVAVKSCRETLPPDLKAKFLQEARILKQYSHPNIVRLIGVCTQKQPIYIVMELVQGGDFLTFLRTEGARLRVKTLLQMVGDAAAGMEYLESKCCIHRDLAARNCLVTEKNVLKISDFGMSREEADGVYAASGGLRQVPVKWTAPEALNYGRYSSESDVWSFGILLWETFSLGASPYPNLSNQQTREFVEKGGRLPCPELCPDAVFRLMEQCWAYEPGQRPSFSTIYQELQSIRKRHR
Grb2 SH2, sequence (P62993 whole entry, looked up): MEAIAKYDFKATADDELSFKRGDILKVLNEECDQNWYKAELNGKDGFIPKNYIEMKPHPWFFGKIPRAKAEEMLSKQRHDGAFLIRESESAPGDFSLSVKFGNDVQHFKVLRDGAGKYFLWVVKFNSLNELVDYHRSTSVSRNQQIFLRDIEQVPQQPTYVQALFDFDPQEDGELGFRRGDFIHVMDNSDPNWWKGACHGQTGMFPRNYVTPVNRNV
Jak2, sequence (O60674 whole entry, looked up): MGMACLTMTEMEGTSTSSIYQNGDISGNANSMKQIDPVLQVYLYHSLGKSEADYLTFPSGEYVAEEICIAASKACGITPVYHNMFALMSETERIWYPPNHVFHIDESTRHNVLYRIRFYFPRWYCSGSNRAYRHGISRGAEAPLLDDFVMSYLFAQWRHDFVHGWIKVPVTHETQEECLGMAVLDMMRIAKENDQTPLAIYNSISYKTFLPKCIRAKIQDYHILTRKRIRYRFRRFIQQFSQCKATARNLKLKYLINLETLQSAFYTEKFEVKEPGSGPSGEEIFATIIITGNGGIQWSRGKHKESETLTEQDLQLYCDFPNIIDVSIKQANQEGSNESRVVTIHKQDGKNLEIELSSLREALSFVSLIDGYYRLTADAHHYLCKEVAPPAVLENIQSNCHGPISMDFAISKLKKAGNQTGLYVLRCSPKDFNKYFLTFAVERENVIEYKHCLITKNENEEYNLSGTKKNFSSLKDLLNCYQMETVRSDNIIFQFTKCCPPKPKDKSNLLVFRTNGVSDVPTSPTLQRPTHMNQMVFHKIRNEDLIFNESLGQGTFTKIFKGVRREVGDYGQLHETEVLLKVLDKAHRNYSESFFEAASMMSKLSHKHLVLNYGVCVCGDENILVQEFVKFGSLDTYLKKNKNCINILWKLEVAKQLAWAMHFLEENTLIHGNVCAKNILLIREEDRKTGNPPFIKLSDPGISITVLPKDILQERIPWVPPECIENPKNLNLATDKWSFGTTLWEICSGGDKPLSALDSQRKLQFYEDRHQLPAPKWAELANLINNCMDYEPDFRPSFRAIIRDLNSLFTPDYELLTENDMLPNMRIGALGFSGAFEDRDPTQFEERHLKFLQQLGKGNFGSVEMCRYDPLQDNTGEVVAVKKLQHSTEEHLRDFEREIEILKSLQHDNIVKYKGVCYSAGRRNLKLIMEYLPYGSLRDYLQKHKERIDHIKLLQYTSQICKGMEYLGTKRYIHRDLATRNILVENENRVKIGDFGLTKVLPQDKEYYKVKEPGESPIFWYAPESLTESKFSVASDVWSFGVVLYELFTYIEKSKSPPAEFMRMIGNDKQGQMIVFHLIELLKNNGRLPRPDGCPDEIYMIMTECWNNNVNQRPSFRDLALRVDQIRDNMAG
Hck, sequence (P08631 whole entry, looked up): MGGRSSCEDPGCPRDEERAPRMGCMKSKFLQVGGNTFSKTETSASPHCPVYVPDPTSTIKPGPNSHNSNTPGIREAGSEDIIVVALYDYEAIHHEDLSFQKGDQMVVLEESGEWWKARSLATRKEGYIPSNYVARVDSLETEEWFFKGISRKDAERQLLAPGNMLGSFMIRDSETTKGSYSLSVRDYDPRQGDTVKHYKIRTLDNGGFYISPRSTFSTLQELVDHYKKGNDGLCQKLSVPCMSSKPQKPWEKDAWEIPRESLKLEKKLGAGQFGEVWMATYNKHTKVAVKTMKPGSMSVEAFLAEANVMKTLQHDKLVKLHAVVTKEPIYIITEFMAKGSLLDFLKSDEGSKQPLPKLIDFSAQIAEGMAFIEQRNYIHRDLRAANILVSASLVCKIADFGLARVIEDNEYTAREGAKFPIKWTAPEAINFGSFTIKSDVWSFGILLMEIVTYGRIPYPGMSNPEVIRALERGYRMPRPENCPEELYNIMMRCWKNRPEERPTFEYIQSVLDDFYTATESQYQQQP

Row | Sequence | phosphorylation enrichment (AncSZ) | phosphorylation enrichment (EPHB1) | phosphorylation enrichment (EPHB2) | phosphorylation enrichment (FGFR1) | phosphorylation enrichment (FGFR3) | phosphorylation enrichment (Fer (mouse)) | phosphorylation enrichment (Fes) | phosphorylation enrichment (Fyn) | phosphorylation enrichment (Hck) | phosphorylation enrichment (Jak2) | phosphorylation enrichment (MERTK) | phosphorylation enrichment (c-Abl (mouse)) | phosphorylation enrichment (c-Src) | SH2 binding enrichment (Grb2 SH2) | SH2 binding enrichment (SHP2-C SH2) | SH2 binding enrichment (c-Src SH2)
1 | ILDEAYVMASV [EGFR_Y764] | 1.16 | 0.598 | 0.559 | 0.641 | 0.763 | 0.538 | 1.33 | 0.505 | 0.515 | 1.07 | 0.409 | 0.692 | 0.612 | 0.708 | 0.632 | 0.356
2 | ILGRTYFVNHE [NEDD4_Y627_YF] | 0.83 | 0.526 | 0.398 | 0.43 | 0.605 | 0.429 | 0.854 | 0.392 | 0.379 | 0.758 | 0.355 | 0.735 | 0.467 | 0.865 | 0.656 | 0.463
3 | ILLAGYLVMVI [SLC28A3_Y113] | 1.35 | 0.681 | 0.652 | 0.58 | 0.783 | 0.613 | 1.38 | 0.572 | 0.525 | 1.06 | 0.498 | 0.748 | 0.442 | 0.729 | 0.781 | 0.502
4 | IMAYFYMCDRA [CASD1_Y382] | 1.11 | 0.803 | 0.641 | 1.09 | 1.23 | 0.614 | 1.45 | 0.421 | 0.401 | 1.46 | 0.494 | 1 | 0.487 | 1.14 | 1.02 | 0.87
5 | INMKEYCKKDY [NTN1_Y490_K489E] | 0.824 | 0.461 | 0.462 | 0.447 | 0.595 | 0.615 | 0.944 | 0.451 | 0.477 | 1.29 | 0.364 | 0.661 | 0.429 | 0.723 | 0.501 | 0.498
6 | IPVNGYQPVPA [ROR2_Y824_V819I] | 0.582 | 0.385 | 0.467 | 0.36 | 0.523 | 0.337 | 0.633 | 0.429 | 0.513 | 0.533 | 0.899 | 0.592 | 0.472 | 0.934 | 0.692 | 0.756
7 | IQKKYYRAILE [CHD7_Y1218] | 0.649 | 0.396 | 0.586 | 0.424 | 0.485 | 0.384 | 0.761 | 0.407 | 0.432 | 0.563 | 0.341 | 0.468 | 0.324 | 0.976 | 0.636 | 0.637
8 | IRKKFYRAILE [CHD7_Y1218_Q1214R_YF] | 0.569 | 0.386 | 0.58 | 0.426 | 0.444 | 0.42 | 0.62 | 0.57 | 0.455 | 0.797 | 0.618 | 0.568 | 0.658 | 0.619 | 0.458 | 0.433
9 | ISHVAYRVLGK [TRRAP_Y892] | 0.634 | 0.31 | 0.365 | 0.423 | 0.402 | 0.338 | 0.597 | 0.394 | 0.348 | 0.426 | 0.34 | 0.477 | 0.416 | 0.775 | 0.732 | 0.488
10 | ISMAGYSIPEL [EDAR_Y406_T403M] | 0.647 | 0.395 | 0.553 | 0.494 | 0.54 | 0.455 | 0.787 | 0.448 | 0.437 | 0.68 | 0.573 | 1.15 | 0.508 | 0.827 | 0.861 | 10.4
11 | ISSLCYELLEE [TRPC6_Y896_R895C] | 2.07 | 0.986 | 0.654 | 0.748 | 1.23 | 0.924 | 1.66 | 0.597 | 0.747 | 1.36 | 0.777 | 1.13 | 0.928 | 0.843 | 0.769 | 0.701
12 | ISSLRYELLEE [TRPC6_Y896] | 1.24 | 0.63 | 0.573 | 0.52 | 0.764 | 0.544 | 1.17 | 0.511 | 0.597 | 0.832 | 0.533 | 0.621 | 0.397 | 0.832 | 0.754 | 6.86
13 | IVAREYFSDAD [CAMK2A_Y106_E109D_YF] | 0.744 | 0.48 | 0.491 | 0.461 | 0.583 | 0.418 | 0.922 | 0.378 | 0.415 | 0.793 | 0.378 | 0.8 | 0.438 | 0.8 | 0.589 | 0.467
14 | IVAREYYSDAD [CAMK2A_Y106_E109D] | 1.04 | 0.775 | 0.647 | 0.657 | 0.633 | 0.589 | 1.13 | 0.473 | 0.525 | 0.959 | 0.41 | 0.828 | 0.559 | 0.869 | 0.833 | 3.1
15 | IVAREYYSKAD [CAMK2B_Y107_E110K] | 0.768 | 0.467 | 0.602 | 0.43 | 0.504 | 0.405 | 0.85 | 0.423 | 0.507 | 0.697 | 0.425 | 0.639 | 0.525 | 0.75 | 0.749 | 2.01
16 | IVEYAYNDKAI [PUM3_Y259] | 1.28 | 0.705 | 0.69 | 0.501 | 0.702 | 0.631 | 1.27 | 0.505 | 0.539 | 1.15 | 0.397 | 0.859 | 0.474 | 0.761 | 0.656 | 0.571
17 | IVFTSYVLTIL [TAS2R16_Y239_F240V] | 1.41 | 0.884 | 0.794 | 0.71 | 1.17 | 0.731 | 1.73 | 0.667 | 0.623 | 1.55 | 0.526 | 1.05 | 0.55 | 1.04 | 0.641 | 0.806
18 | IVVVPYEPPEV [TP53_Y220_S215I] | 1.01 | 0.636 | 0.544 | 0.511 | 0.665 | 0.554 | 1.08 | 0.43 | 0.48 | 0.882 | 0.448 | 0.733 | 0.386 | 0.835 | 0.763 | 0.811
19 | IVWDSYTTNKV [GNB3_Y85] | 1 | 0.675 | 0.559 | 0.501 | 0.635 | 0.519 | 1.2 | 0.546 | 0.528 | 0.895 | 0.307 | 0.718 | 0.359 | 0.966 | 0.887 | 0.585
20 | IWGKKYPTCNS [PTPRZ1_Y53_N48I] | 0.697 | 0.441 | 0.491 | 0.432 | 0.607 | 0.518 | 0.776 | 0.369 | 0.406 | 0.667 | 0.407 | 0.628 | 0.397 | 1.2 | 0.89 | 0.846
21 | IYLADYRIMEG [ALOX12B_Y318] | 1.14 | 1.26 | 1.07 | 2.63 | 2.46 | 0.48 | 1.1 | 0.738 | 0.812 | 1.03 | 3.75 | 0.978 | 1.16 | 0.982 | 1.1 | 0.719
22 | KAIMTYVFSFF [ACTN4_Y260_S262F_YF] | 0.989 | 0.553 | 0.461 | 0.443 | 0.725 | 0.454 | 0.945 | 0.464 | 0.502 | 0.698 | 0.431 | 0.526 | 0.425 | 1.26 | 1.19 | 0.888
23 | KDHPDYKYQPR [SOX10_Y171] | 0.668 | 0.362 | 0.381 | 0.492 | 0.481 | 0.435 | 0.595 | 0.458 | 0.463 | 0.509 | 0.387 | 0.687 | 0.412 | 1.04 | 0.77 | 0.619
24 | KELANYFKLHH [AK7_Y390_YF] | 0.644 | 0.727 | 0.537 | 1.15 | 0.83 | 0.442 | 0.877 | 0.567 | 0.486 | 1.68 | 0.545 | 0.439 | 0.481 | 0.945 | 0.949 | 0.516
25 | KELAPYDENRF [RPS19_Y48_W52R] | 1.05 | 0.594 | 0.553 | 0.48 | 0.79 | 0.579 | 1.36 | 0.485 | 0.512 | 1.05 | 0.5 | 0.983 | 0.577 | 0.896 | 1.39 | 0.605
26 | KIITDYFVDMK [MPP4_Y566_V562I_YF] | 1.05 | 0.575 | 0.566 | 0.732 | 0.783 | 0.456 | 1.15 | 0.513 | 0.479 | 1.14 | 0.37 | 0.644 | 0.529 | 0.83 | 0.571 | 0.526
27 | KILGRYFETGS [PAX2_Y72_YF] | 0.575 | 0.414 | 0.467 | 0.459 | 0.496 | 0.464 | 0.656 | 0.408 | 0.397 | 0.759 | 0.375 | 0.563 | 0.413 | 0.9 | 0.845 | 0.438
28 | KKHFSYAWPFY [BRDT_Y291] | 1 | 0.622 | 0.428 | 0.495 | 0.564 | 0.385 | 0.965 | 0.456 | 0.425 | 0.647 | 1.22 | 0.493 | 0.375 | 1.73 | 1.46 | 1.52
29 | KKLAEYGPQGK [CLCA1_Y147_R152K] | 0.361 | 0.334 | 0.324 | 0.369 | 0.295 | 0.326 | 0.498 | 0.401 | 0.401 | 0.366 | 0.273 | 0.427 | 0.348 | 0.769 | 0.609 | 0.491
